Test results: patent US11999782B2, “Therapeutic agents for the treatment of diseases associated with undesired cell proliferation” (Fundació Privada Institutció Catalana de Recerca I Estudis …, priority 2009, dated 2024)

Legend:
[1] = test system: LIF expression in GBM neurospheres; assay: LIF mRNA by qRT-PCR in GBM neurospheres; assay type: cell-based, human; conditions: 100 pM, 3 hours, medium without serum
Procedure: FIG. 3. TGFβ induces the expression of LIF in PCTC and GBM neurospheres. (A) PCTC cells of the 11 samples of the indicated GEM (GBM1-11) were treated with 100 pM TGFβ1 for 3 hours in medium without serum or left untreated, and the expression levels of LIF were determined by means of qRT-PCR. The g-actin was determined as an internal normalization control. (B) GBM neurosphere cells were treated as in A and the expression levels of LIF were determined by means of qRT-PCR as in A. (C) GBM neurospheres were incubated with 100 pM TGFβ1 and/or 2 μM TβRI inhibitor for 3 hours in medium without serum and the mRNA levels of LIF were determined by means of qRT-PCR as in A. (D) GBM1 neurospheres were incubated with 100 pM TGFβ1, TGFβ2 and TGFβ3 for 3 hours in medium without serum and the mRNA levels of LIF were determined by means of qRT-PCR as in A. (E) The levels of LIF protein secreted were determined by means of ELISA in GBM1 neurospheres after 48 hours of treatment with 100 pM TGFβ1.
The U373MG and A172 cells were a generous gift from J. Rich and D. Bigner and were cultured in DMEM with 10% fetal bovine serum (FBS). The primary culture of tumor cells (PCTC) and the GBM neurospheres were generated as described (Bruna et al., (2007) Cancer Cell 11, 147-160; Gunther et al., (2008) Oncogene. May 1; 27(20):2897-909). Briefly, the samples of tumors were processed in the 30 minutes after the surgical resection. The ground pieces of the samples of human gliomas were digested with 200 U/ml collagenase I (Sigma) and 500 U/ml of DNase I (Sigma) in PBS for 2 hours at 37° C. and with constant vigorous stirring. The suspension of individual cells was filtered through a 70 μm cell filter (BD Falcon) and washed with PBS. Finally, the cells were resuspended and subsequently cultured in DMEM with 10% FBS, for the culture of PCTCs, or in neurosphere medium in the case of the GBM neurospheres. The neurospheres of normal human neuroprogenitors were generated from human embryonic cerebral cortex tissue (12-16 weeks after the conception) collected after voluntary abortions. The samples were processed and cultured as described (Poltavtseva et al. (2002) Brain Res Dev Brain Res 134, 149-154). The neurosphere medium consists of neurobasal medium (Gibco) supplemented with B27 (Gibco), L-glutamine (Gibco), penicillin/streptomycin, and growth factors (20 ng/mL EGF and 20 ng/mL FGF-2 (Peprotech)).
(§1) qRT-PCR was performed using Taqman probes from Applied Biosystems, according to the manufacturer's recommendations. The reactions were carried out in a ABI 7000 sequence detector (Perkin Elmer) and the results were expressed as the fold change calculated by means of the DDCt method relative to the control sample or the first quantified sample. The ribosomal unit of 18S or β-actin were used as internal normalization controls.
It was decided to investigate the molecular mechanisms responsible for the effect of TGFβ on GICs. Gene responses to TGFβ in GBM cells which could be involved in the regulation of the self-renewal of GICs were investigated. In a previous work (Bruna et al., 2007), transcriptome analyses were conducted in the U373MG glioma cell line treated with TGFβ and/or a TβRI inhibitor. LIF was among the 63 gene responses to TGFβ in U373MG which were dependent on the activity of TβRI. […] A panel of PCTCs derived from 11 different human GBMs was treated with TGFβ for 3 hours and the levels of LIF mRNA were determined.

GBM neurospheres = assay: Differentiation of GBM neurospheres (neuroprogenitor markers, adhesion); assay type: cell-based, human; conditions: GBM1 neurospheres, 7 days without EGF or FGF, 100 pM TGFβ1 or 20 ng/ml LIF
Procedure: FIG. 7. TGFβ and LIF prevent the differentiation of GBM neurospheres. (A) Immunocytochemistry of the indicated proteins was performed in neurospheres derived from GBM1 treated with 100 pM TGFβ1 or 20 ng/ml LIF for 7 days in the absence of growth factors and the last 3 days on slides coated with poly-L-lysine. (B) The mRNA levels of Musashi-1 (Msi-1), Sox2 and Nestin were determined in GBM1 neurospheres after 7 days of the indicated treatments without growth factors. The RNA levels of 18S were used as an internal normalization control.
The immunocytochemistry of neurospheres and differentiated neurospheres was performed as described (Geshwind et al., 2001) using the following antibodies: anti-nestin (Chemicon), anti-GFAP (Dako), anti-TuJ1 (Chemicon), anti-04 (Chemicon), anti-Sox2 (Chemicon), anti-α-tubulin (Sigma). The nuclei were counterstained with 4′,6-diamino-2-phenylindole (DAPI).
as §1
The neurospheres derived from GBMs grown in the absence of growth factors and seeded in poly-L-lysine-coated plates tend to differentiate losing the expression of the neuroprogenitor markers Musashi-1, Sox2 and Nestin, and being adhered to the culture plate. It was decided to evaluate the effect of TGFβ and LIF on this differentiation process. The neurospheres were cultured in the presence of TGFβ or LIF without EGF or FGF for 7 days and subsequently processed for immunohistochemical staining and qRT-PCR assays for determining the levels of the neuroprogenitor markers Musashi-1, Sox2 and Nestin.

[2] = test system: LIF expression in normal human neuroprogenitors; assay: LIF mRNA in neurospheres of normal human neuroprogenitors; assay type: cell-based; conditions: 100 pM, 3 hours, compared with GBM neurospheres
Procedure: FIG. 8. Effect of TGFβ on the capacity of self-renewal of normal human neuroprogenitors. (A) Immunocytochemistry of the indicated markers was performed in human neuroprogenitor neurospheres. (B) Neurospheres of the sample of GBM1 and of human neuroprogenitors were incubated with the indicated members of the 100 pM TGFβ family for 3 hours and the mRNA levels of LIF were determined. (C, D) Neurosphere cells of normal human neuroprogenitors were incubated in the same conditions that have been described above in FIG. 1D in the presence of 100 pM TGFβ1 or 20 ng/ml LIF for 7 days and the number of newly formed neurospheres (C) and the number total of cells (D) were determined.
The U373MG and A172 cells were a generous gift from J. Rich and D. Bigner and were cultured in DMEM with 10% fetal bovine serum (FBS). The primary culture of tumor cells (PCTC) and the GBM neurospheres were generated as described (Bruna et al., (2007) Cancer Cell 11, 147-160; Gunther et al., (2008) Oncogene. May 1; 27(20):2897-909). Briefly, the samples of tumors were processed in the 30 minutes after the surgical resection. The ground pieces of the samples of human gliomas were digested with 200 U/ml collagenase I (Sigma) and 500 U/ml of DNase I (Sigma) in PBS for 2 hours at 37° C. and with constant vigorous stirring. The suspension of individual cells was filtered through a 70 μm cell filter (BD Falcon) and washed with PBS. […]
as §1, with “The ribosomal unit of 18S or β-actin were used as internal normalization controls.” left out
It was decided to assess whether this effect was specific to tumor cells or was also present in normal neuroprogenitor cells. […] First, it was determined if TGFβ induced LIF in normal human neuroprogenitors. […]

B1: TGFβ3: TGFβ3 (R&D Systems), member of the TGFβ family (protein, UniProt P10600 301-412, looked up)
Transforming growth factor …: ALDTNYCFRNLEENCCVRPLYIDFRQDLGWKWVHEPKGYYANFCSGPCPYLRSADTTHSTVLGLYNTLNPEASASPCCVPQDLEPLTILYYVGRTPKVEQLSNMVVKSCKCS
- LIF transcript in neurospheres derived from patients [1]: capable of inducing LIF
- expression of Musashi-1, Sox2 and Nestin (immunocytochemistry, qRT-PCR) (GBM neurospheres): maintained the expression
- induction of LIF mRNA in normal human neuroprogenitor neurospheres [2]: did not induce LIF
